From article PMC3814348 (PLoS Pathogens, 2013)

Molecular target: Hrs, purified recombinant ( (human, mouse or zebrafish …, UniProt O14964 1-777))
Assay: pull-down
Settings: both partners purified

B1: EsxGMt EsxHMt-6XHis heterodimer (complex)
chain 1: MSLLDAHIPQLVASQSAFAAKAGLMRHTIGQAEQAAMSAQAFHQGESSAAFQAAHARFVAAAAKVNTLLDVAQANLGEAAGTYVAADAAAASTYTGF
chain 2: MSQIMYNYPAMLGHAGDMAGYAGTLQSLGAEIAVEQAALQSAWQGDTGITYQAWQAQWNQAMEDLVRAYHAMSSTHEANTMAMMARDTAEAAKWGG
Work on B1 yielded a Kd of 5.4 µM.
